{
  "source": "patent US20260374897",
  "about": "(published 2026)",
  "key": {"human FAP ECD": {"target": "human FAP ECD (human, UniProt Q12884)", "sequence (Q12884 26-760)": "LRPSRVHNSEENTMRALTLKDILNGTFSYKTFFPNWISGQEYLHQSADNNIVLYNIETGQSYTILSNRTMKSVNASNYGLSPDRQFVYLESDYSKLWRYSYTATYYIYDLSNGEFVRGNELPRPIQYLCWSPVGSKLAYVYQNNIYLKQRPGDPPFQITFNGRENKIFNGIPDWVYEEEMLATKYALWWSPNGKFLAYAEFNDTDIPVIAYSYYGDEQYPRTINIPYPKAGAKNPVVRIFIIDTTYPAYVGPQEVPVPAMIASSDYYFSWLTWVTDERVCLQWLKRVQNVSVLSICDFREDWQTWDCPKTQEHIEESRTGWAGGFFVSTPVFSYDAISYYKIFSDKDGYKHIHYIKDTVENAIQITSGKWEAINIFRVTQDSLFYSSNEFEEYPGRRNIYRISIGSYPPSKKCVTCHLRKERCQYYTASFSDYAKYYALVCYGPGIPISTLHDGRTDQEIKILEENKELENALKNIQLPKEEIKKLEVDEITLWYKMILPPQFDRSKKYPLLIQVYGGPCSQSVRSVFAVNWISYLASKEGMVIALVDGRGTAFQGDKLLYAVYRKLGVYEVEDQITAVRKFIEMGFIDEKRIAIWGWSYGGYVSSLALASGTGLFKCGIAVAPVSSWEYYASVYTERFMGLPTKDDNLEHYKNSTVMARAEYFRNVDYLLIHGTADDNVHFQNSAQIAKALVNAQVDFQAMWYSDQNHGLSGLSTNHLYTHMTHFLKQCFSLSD", "test": "SPR"}, "mouse FAP (cell surface)": {"target": "T1, mouse FAP (cell surface) (mouse, UniProt P97321)", "T1 chain": "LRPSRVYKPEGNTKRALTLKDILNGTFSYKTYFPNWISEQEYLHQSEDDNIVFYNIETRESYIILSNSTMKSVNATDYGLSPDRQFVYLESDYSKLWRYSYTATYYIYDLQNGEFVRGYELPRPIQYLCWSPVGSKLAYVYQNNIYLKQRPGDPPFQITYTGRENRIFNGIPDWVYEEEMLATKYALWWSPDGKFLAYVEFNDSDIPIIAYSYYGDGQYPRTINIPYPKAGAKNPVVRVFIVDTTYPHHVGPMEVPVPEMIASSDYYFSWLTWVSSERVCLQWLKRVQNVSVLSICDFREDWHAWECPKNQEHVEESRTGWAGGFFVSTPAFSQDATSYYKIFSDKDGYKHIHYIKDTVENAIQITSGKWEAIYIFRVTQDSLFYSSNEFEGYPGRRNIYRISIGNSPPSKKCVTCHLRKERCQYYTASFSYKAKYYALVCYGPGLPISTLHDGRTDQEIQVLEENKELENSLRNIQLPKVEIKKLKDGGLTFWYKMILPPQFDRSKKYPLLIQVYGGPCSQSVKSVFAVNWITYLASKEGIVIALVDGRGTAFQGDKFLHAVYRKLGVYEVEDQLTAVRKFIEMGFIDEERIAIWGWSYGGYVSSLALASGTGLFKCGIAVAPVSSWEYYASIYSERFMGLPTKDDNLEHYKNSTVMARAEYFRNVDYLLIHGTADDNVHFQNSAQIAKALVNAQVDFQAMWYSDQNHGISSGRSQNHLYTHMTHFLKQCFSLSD", "test": "FACS"}, "human FAP (cell surface)": {"target": "human FAP (cell surface) (human, UniProt Q12884)", "sequence (Q12884 26-760)": "as the sequence (Q12884 26-760) above", "test": "FACS"}},
  "data": [
    {"binder": "Ab10-A297V3-2 FAP arm (antibody, V domains shown) VH: QVQLQQSGVEVKKPGASVTVSCRASGYSFADHFIHWVRQAPGQGFQWMGWINPNRGVTHHAQDFQGRVAMTRDMSTDTVYMELTSLRSDDTAVYYCARDASLTARPYYFYGFDVWGQGTLVTVSS VL: DIQMTQSPSSVSASVGDRVTITCRASQGISSWLAWYQQKPGKAPKLLIYAASSLQSGVPSRFSGSGSGTDFTLTISSLQPEDFATYYCQQANSFPPAFGQGTKVEIK", "values": [
      {"measurement": "Kd", "setting": "human FAP ECD", "result": 0.405, "unit": "nM"},
      {"measurement": "EC50", "setting": "mouse FAP (cell surface)", "result": 0.79, "unit": "nM"},
      {"measurement": "EC50", "setting": "human FAP (cell surface)", "result": 2.51, "unit": "nM"}
    ]},
    {"binder": "Ab10-A297V3-4 FAP arm (antibody, V domains shown) VH: QVQLQQSGVEVKKPGASVTVSCRASGYSFADHFIHWVRQAPGQGFQWMGWINPNRGVTHHAQDFQGRVAMTRDMSTDTVYMELTSLRSDDTAVYYCARDASLTARPYYFYGFDVWGQGTLVTVSS VL: DIQMTQSPSSVSASVGDRVTITCRASQGISSWLAWYQQKPGKAPKLLIYAASSLQSGVPSRFSGSGSGTDFTLTISSLQPEDFATYYCQQANSFPPAFGQGTKVEIK", "values": [
      {"measurement": "Kd", "setting": "human FAP ECD", "result": 0.378, "unit": "nM"},
      {"measurement": "EC50", "setting": "mouse FAP (cell surface)", "result": 1.65, "unit": "nM"},
      {"measurement": "EC50", "setting": "human FAP (cell surface)", "result": 1.57, "unit": "nM"}
    ]}
  ]
}
